In US20200339678A1 (RIGEL PHARMACEUTICALS, published 2020):
Numbering of substitutions follows the chain as printed. Values belong to the binder of their own block, whether it stands above or below them.

Target: T1, His-tagged recombinant Mouse TIGIT (mouse, UniProt P86176 29-148, limits assumed)
T1 construct: not shown: His tag
T1 sequence (looked up): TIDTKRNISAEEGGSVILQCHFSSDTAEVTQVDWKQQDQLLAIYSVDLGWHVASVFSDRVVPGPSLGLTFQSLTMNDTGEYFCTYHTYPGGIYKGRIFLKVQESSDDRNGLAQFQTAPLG
Experiment: ELISA, coated His-tagged mouse TIGIT
Protocol: Binding affinities for antigen binding to anti-TIGIT monoclonal antibodies were determined by ELISA. […] Antibodies to be tested were diluted to 1 μM in PBS buffer containing 1% BSA and diluted 3-fold in a 10-point curve. […] Detection of the secondary antibody was determined using streptavidin-HRP and TMB reagent. All assays were performed at room temperature. Curve-fitting software was used to determine the EC₅₀ for each antibody.

B1: Ab11 (Fab, V domains shown)
VH: EVQLLESGGGLVQPGGSLRLSCAASGFTFSSYGMHWVRQAPGKGLEWVASISSNGGYTSYADSVKGRFTISRDNSKNTLYLQMNSLRAEDTAVYYCARVPYGYWIDYWGQGTLVTVSS
VL: not shown
notes: ARV set
EC50: 359 nM

B2: Ab88 (Fab, V domains shown)
VH: B1 VH with G33S, H35S, N54S, G55A, Y57T, Y103V
VL: not shown
notes: ARV set
EC50: 407 nM

B4: Ab65 (Fab, V domains shown)
VH: EVQLLESGGGLVQPGGSLRLSCAASGFTFSSYAMSWVRQAPGKGLEWVAYIKSNTGSISYADSVKGRFTISRDNSKNTLYLQMNSLRAEDTAVYYCAREPYSVWLDYWGQGTLVTVSS
VL: not shown
notes: ARE set
EC50: 778 nM

B5: Ab51 (Fab, V domains shown)
VH: B4 VH with A49S, Y50S, T55S, I58K, L105M
VL: not shown
notes: ARE set
EC50: 79.8 nM

B10: Ab57 (Fab, V domains shown)
VH: B4 VH with A33S, S35H, N54D, G56S, S57T, S59G, E99V, S102D, L105I
VL: not shown
notes: ARV set
EC50: 305 nM

B12: Ab26 (Fab, V domains shown)
VH: B4 VH with A33S, Y50D, N54S, T55G, G56S, S57T, I58K, S102D, V103Y, L105M
VL: not shown
notes: ARE set
EC50: 47.5 nM

B13: Ab73 (Fab, V domains shown)
VH: B4 VH with A33S, Y50S, S53G, N54S, T55A, I58S, E99V, S102D
VL: not shown
notes: ARV set
EC50: 266 nM

B14: Ab33 (Fab, V domains shown)
VH: B1 VH with A49S, S50D, Y57T, T58I, S59Y, V99G, Y103V, I105L
VL: not shown
notes: ARG set
EC50: 85.4 nM

B15: Ab62 (Fab, V domains shown)
VH: B1 VH with G33S, H35S, N54S, G55A, T58S, S59Y, G102D, Y103V
VL: not shown
notes: ARV set
EC50: 361 nM

B16: Ab37 (Fab, V domains shown)
VH: B4 VH with A33G, S35N, A49S, Y50D, K52N, T55S, I58T, E99G, S102G
VL: not shown
notes: ARG set
EC50: 221 nM

B17: Ab36 (Fab, V domains shown)
VH: B4 VH with Y50S, N54S, T55G, G56S, S57Y, I58K, V103T
VL: not shown
notes: ARE set
EC50: 470 nM

B18: Ab63 (Fab, V domains shown)
VH: B1 VH with G33S, S53G, N54S, G55T, Y57T, T58S, S59Y
VL: not shown
notes: ARV set
EC50: 178 nM

B20: Ab35 (Fab, V domains shown)
VH: B1 VH with N54S, G55S, T58K, S59Y, G102S, I105M
VL: not shown
notes: ARV set
EC50: 357 nM

B23: Ab71 (Fab, V domains shown)
VH: B1 VH with G33S, N54S, G55A, G56S, Y57T, T58S, S59Y, Y103V
VL: not shown
notes: ARV set
EC50: 477 nM

B24: Ab45 (Fab, V domains shown)
VH: B1 VH with H35N, S50R, N54S, G56S, T58I, S59G, V99G, I105L
VL: not shown
notes: ARG set
EC50: 48 nM

B25: Ab25 (Fab, V domains shown)
VH: B1 VH with S50A, S52K, N54S, G56S, Y57S, I105M
VL: not shown
notes: ARV set
EC50: 20.9 nM

B26: Ab8 (Fab, V domains shown)
VH: B1 VH with G33A, H35S, S50D, S52K, S59Y, I105L
VL: not shown
notes: ARV set
EC50: 149 nM

B27: Ab42 (Fab, V domains shown)
VH: B1 VH with S50R, S52N, Y57S, T58K, V99G, I105F
VL: not shown
notes: ARG set
EC50: 60.5 nM

B31: Ab44 (Fab, V domains shown)
VH: B1 VH with G33S, A49S, S50A, N54D, G56S, T58I, G102D, Y103V, I105F
VL: not shown
notes: ARV set
EC50: 128 nM

B33: Ab5 (Fab, V domains shown)
VH: B4 VH with S31D, A33S, S35N, Y50L, T55S, I58T, E99G, S102D, L105M
VL: not shown
notes: ARG set
EC50: 322 nM

B34: Ab31 (Fab, V domains shown)
VH: EVQLLESGGGLVQPGGSLRLSCAASGFTFSSYTMHWVRQAPGKGLEWVANIKSSSSTKYYADSVKGRFTISRDNSKNTLYLQMNSLRAEDTAVYYCARGPYDVWLDYWGQGTLVTVSS
VL: not shown
notes: ARG set
EC50: 56.9 nM

B35: Ab30 (Fab, V domains shown)
VH: B1 VH with S52K, G55S, Y57N, S59G, G102S, Y103V, I105M
VL: not shown
notes: ARV set
EC50: 135 nM

B41: Ab9 (Fab, V domains shown)
VH: B34 VH with S30D, T33S, S55G, S56G, T57Y, K58I, Y59S, L105M
VL: not shown
notes: ARG set
EC50: 181 nM

B42: Ab58 (Fab, V domains shown)
VH: B4 VH with A49S, Y50S, N54S, T55A, I58S, S59Y, S102D, L105I
VL: not shown
notes: ARE set
EC50: 170 nM

B44: Ab14 (Fab, V domains shown)
VH: B1 VH with A49S, N54S, Y57T, T58K, S59G, G102D, Y103V, I105M
VL: not shown
notes: ARV set
EC50: 169 nM

Next, values leading:

EC50: 230 nM
B3: Ab87 (Fab, V domains shown)
VH: B1 VH with G33S, H35S, S52K, N54S, G55A, T58I, G102D
VL: not shown
notes: ARV set

EC50: 19.5 nM
B6: Ab196 (Fab, V domains shown)
VH: B4 VH with A33S, S35N, A49S, Y50S, S53G, N54S, T55A, S57T, I58T, L105M
VL: not shown
notes: ARE set

EC50: 295 nM
B7: Ab192 (Fab, V domains shown)
VH: B1 VH with G33A, A49S, N54D, G55T, T58I, S59G, G102D, Y103V
VL: not shown
notes: ARV set

EC50: 10.7 nM
B8: Ab117 (Fab, V domains shown)
VH: B4 VH with Y50A, N54S, T55A, G56S, S57T, S59Y, L105M
VL: not shown
notes: ARE set; also called clone Ab117

EC50: 307 nM
B9: Ab81 (Fab, V domains shown)
VH: B4 VH with A33S, S35H, Y50S, S53G, I58S, S59G, E99V, S102D, L105I
VL: not shown
notes: ARV set

EC50: 200 nM
B11: Ab182 (Fab, V domains shown)
VH: B1 VH with G33S, G55T, Y57T, S59G
VL: not shown
notes: ARV set

EC50: 23.4 nM
B19: Ab190 (Fab, V domains shown)
VH: B1 VH with G33A, S50A, S52K, N54S, G55A, T58S, S59Y, Y103V
VL: not shown
notes: ARV set

EC50: 186 nM
B21: Ab111 (Fab, V domains shown)
VH: B1 VH with G33S, A49S, S50A, S53G, N54S, Y57S, S59Y, I105M
VL: not shown
notes: ARV set

EC50: 213 nM
B22: Ab112 (Fab, V domains shown)
VH: B4 VH with Y50S, K52S, S59Y, E99V, V103Y
VL: not shown
notes: ARV set

EC50: 578 nM
B28: Ab123 (Fab, V domains shown)
VH: B4 VH with A33S, Y50S, K52S, N54S, T55A, S57T, I58S, S102G
VL: not shown
notes: ARE set

EC50: 279 nM
B29: Ab119 (Fab, V domains shown)
VH: B4 VH with A33S, Y50S, N54S, S57T, E99V, S102D, V103Y, L105M
VL: not shown
notes: ARV set

EC50: 265 nM
B30: Ab128 (Fab, V domains shown)
VH: B1 VH with G33S, H35N, S52K, S53G, N54S, G55A, G56S, G102D
VL: not shown
notes: ARV set

EC50: 242 nM
B32: Ab91 (Fab, V domains shown)
VH: B4 VH with A33S, Y50A, S53G, N54S, T55A, I58S, V103Y
VL: not shown
notes: ARE set

EC50: 86.6 nM
B36: Ab79 (Fab, V domains shown)
VH: B1 VH with G33A, S50D, S52K, G55T, S59Y, Y103V
VL: not shown
notes: ARV set

EC50: 254 nM
B37: Ab120 (Fab, V domains shown)
VH: B1 VH with G33S, H35N, A49S, S52N, G55A, Y57T, T58I, S59Y, G102D
VL: not shown
notes: ARV set

EC50: 258 nM
B38: Ab100 (Fab, V domains shown)
VH: B4 VH with Y50S, K52N, S53G, T55A, S57T, V103Y
VL: not shown
notes: ARE set

EC50: 64.1 nM
B39: Ab126 (Fab, V domains shown)
VH: B4 VH with S35H, Y50S, K52S, N54S, S59G, E99V, V103Y, L105M
VL: not shown
notes: ARV set

EC50: 150 nM
B40: Ab125 (Fab, V domains shown)
VH: B1 VH with G33S, S52K, S53G, G55A, Y57T, S59Y, R98K, G102D, Y103V, I105M
VL: not shown
notes: ARV set

EC50: 535 nM
B43: Ab101 (Fab, V domains shown)
VH: B4 VH with Y50D, K52S, S53G, N54S, T55A, S57T, E99V, S102G, V103Y
VL: not shown
notes: ARV set

EC50: 111 nM
B45: Ab77 (Fab, V domains shown)
VH: B1 VH with G33S, H35N, S50A, S53G, G55T, S59Y, V99E, G102S, I105M
VL: not shown
notes: ARE set

EC50: 110 nM
B46: Ab118 (Fab, V domains shown)
VH: B1 VH with G33A, H35S, A49S, S52N, G55A, Y57T, T58S, S59Y, I105M
VL: not shown
notes: ARV set

EC50: 125 nM
B47: Ab106 (Fab, V domains shown)
VH: B4 VH with S35N, Y50S, N54S, S57T, L105I
VL: not shown
notes: ARE set

EC50: 61.2 nM
B48: Ab167 (Fab, V domains shown)
VH: B1 VH with G33A, S53G, G55A, Y57S, T58S, Y103V
VL: not shown
notes: ARV set

EC50: 289 nM
B49: Ab164 (Fab, V domains shown)
VH: B4 VH with A49S, K52N, S59G, S102G, L105M
VL: not shown
notes: ARE set
